In patent US20240294622A1 (SUZHOU TRANSCENTA THERAPEUTICS, published 2024):
Each block holds one binder with its values, some of them ahead of it.

Assays:
[1] = molecular target: T1, Mouse Gremlin-His (R&D) (mouse, UniProt O70326 25-184); experiment: ELISA on coated Mouse Gremlin-his, anti-mouse IgG-HRP
T1 construct: Lys25-Asp184 with 10xHis, R&D 956-GR; also called mouse gremlin (R&D); mGREM1
T1 sequence: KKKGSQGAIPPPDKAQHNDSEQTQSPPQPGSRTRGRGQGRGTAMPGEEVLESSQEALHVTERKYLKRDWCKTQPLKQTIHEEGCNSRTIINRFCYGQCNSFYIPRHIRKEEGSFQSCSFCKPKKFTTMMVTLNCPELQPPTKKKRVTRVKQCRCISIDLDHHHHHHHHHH
Method: (§1) Clear polystyrene plates (BEAVER) were coated with 100 μl/well of a […] hGREM1 (ACRO) and mouse gremlin (R&D) in high pH coating buffer overnight at 4° C. Then the plates were washed once on an automatic plate washer using PBS+0.1% Tween 20 (Sigma). 100 μl of block solution consisting of PBS+1% BSA+1% normal goat serum+0.5% Tween 20 (Sigma) was added to each well and incubated at room temperature for 2 hours. Then 100 μl of antibodies in antibody dilution buffer containing PBS+1% BSA+1% normal goat serum+0.01% Tween 20 starting from 2 μg/ml and then serial dilutions were added to each well of the plate and incubated for 1 hours at room temperature. Afterward the plates were washed three times with 200 μl of PBS+0.1% Tween20 followed by adding 100 μl/well 1:10000 Goat anti mouse IgG-HRP (abcam), and incubate for 1 hour at room temperature. They were then washed 3× with PBS+0.1% Tween20. Finally, 100 µl/well of TMB (Pierce) was added to each well and after several minutes add 50 μl of stop solution to each well. The plates were read on a Multiscan FC microplate reader (Thermo Scientific) at […].

[2] = molecular target: T2, HGREM1-His (ACRO) (human, UniProt O60565 25-184); experiment: competition ELISA on captured human gremlin (Acro,0.5ug/ml), lower panel: hybridoma 22F1 titrated against a fixed amount of chimeric 14E3-C, bound chimeric antibody detected
T2 construct: Lys25-Asp184 of NP_037504 with C-terminal polyhistidine tag (ACRO GR1-H52H3); they are put here; also called hGREM1 (ACRO); human gremlin (ACRO)
T2 sequence: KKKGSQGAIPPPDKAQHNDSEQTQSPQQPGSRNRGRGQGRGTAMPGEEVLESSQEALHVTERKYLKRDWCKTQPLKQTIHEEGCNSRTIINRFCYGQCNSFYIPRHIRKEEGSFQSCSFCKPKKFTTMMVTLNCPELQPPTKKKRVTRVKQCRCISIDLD
Method: (§2) Epitope binning of anti-gremlin hybridoma antibodies were performed using a competition ELISA assay. Clear polystyrene plates (BEAVER) were coated with 100 μl/well of a 0.5 μg/ml hGREM1 (ACRO) in high pH coating buffer overnight at 4° C. Then the plates were washed once on an automatic plate washer using PBS+0.1% Tween 20 (Sigma). 100 μl of block solution consisting of PBS+1% BSA+1% normal goat serum+0.05% Tween 20 (Sigma) was added to each well and incubated at room temperature for 2 hours. Then 50 μl/well of 20 μg/ml saturated antibodies (hybridoma antibodies) in antibody dilution buffer (PBS+1% BSA+1% normal goat serum+0.01% Tween 20) were then added to each well of the plate and incubate for 1 hour. Then add 50 μl/well of 40 ng/ml competitive antibodies (chimeric antibodies, e.g., 14E3-C, 22F1-C, 56C11-C, and 69H5-C) to each well of the plate and incubate for another 1 hour at room temperature. […] The plates were read on a plate reader at 450 nm. The failure of the second antibody to bind in the presence of saturating quantities of the first antibody indicates the two antibodies were in the same epitope bin; the success of the second antibody to bind in the presence of the saturating quantities of the first antibody indicates the two antibodies were in different epitope bins. […]
(§3) The amount of chimeric antibody bound to gremlin were determined.

[3] = molecular target: T2, HGREM1-His (ACRO); experiment: competition ELISA on captured human gremlin (Acro,0.5ug/ml), lower panel: hybridoma 22F1 titrated against a fixed amount of chimeric 22F1-C, bound chimeric antibody detected
Method: as §2, §3

[4] = molecular target: T2, HGREM1-His (ACRO); experiment: ELISA, coated hGREM1 (ACRO)
Method: as §1

[5] = molecular target: T3, Gremlin-Fc (human, UniProt O60565 25-184); experiment: ELISA, coated BMP2 0.5 ug/ml
T3 construct: also called HGREM1-Fc (ACRO); wild-type gremlin-1
T3 sequence: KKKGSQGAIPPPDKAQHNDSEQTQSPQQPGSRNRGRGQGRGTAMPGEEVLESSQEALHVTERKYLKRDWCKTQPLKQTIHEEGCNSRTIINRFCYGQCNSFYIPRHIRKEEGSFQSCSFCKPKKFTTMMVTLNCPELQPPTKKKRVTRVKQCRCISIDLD
Method: (§4) Gremlin is known to be able to bind to BMP proteins and is validated by the present disclosure. Briefly, gremlin-Fc was tested for its binding ability to BMP 2/4/7 immobilized on plate. Briefly, plates were coated with […] of recombinant human BMP2, BMP4) (hBMP4, Peprotech) or human BMP7 (R&D) overnight and wild-type gremlin-1 was added to coated plates and allowed to incubate for an additional hour at RT. The plates were then washed and plate bound biotin-hGremlin was detected with neutravidin conjugated with HRP (thermo). Plates were then developed with a TMB solution and stopped by adding stop solution. The plates were read on a plate reader at 450 nm.

[6] = molecular target: T2, HGREM1-His (ACRO); experiment: ELISA: coated BMP2, gremlin titrated (sheet title: BMP2/4/7 binding to human gremlin-his)
[7] = molecular target: T3, Gremlin-Fc; experiment: ELISA, coated BMP4 0.5 ug/ml
Method: as §4

[8] = molecular target: T2, HGREM1-His (ACRO); experiment: ELISA: coated BMP4, gremlin titrated (sheet title: BMP2/4/7 binding to human gremlin-his)
Method: as §4

binding result [1]: no binding
IC50 (read off the curve) [2]: ~0.8 µg/mL
IC50 (read off the curve) [3]: ~0.8 µg/mL
EC50 [4]: 0.0141 µg/mL
B1: 22F1 (antibody, V domains shown)
VH: EAQLQQSGPELVKPGASVKISCKASGYSFTDYYMNWLKQSHGKSLEWIGDINPKDGDSGYSHKFKGKATLTVDKSSSTAYMELRSLTSEDSAVYYCASGFTTVVARGDYWGQGTTLTVSS
VL: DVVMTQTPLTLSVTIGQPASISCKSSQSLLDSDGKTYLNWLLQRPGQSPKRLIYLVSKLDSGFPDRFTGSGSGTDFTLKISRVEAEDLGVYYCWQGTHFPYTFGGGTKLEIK
notes: mouse hybridoma antibody; also called hybridoma 22F1

binding result [5]: binds
binding result [6]: binds
B2: recombinant human BMP2 (ligand, UniProt P12643 283-396, looked up)
chain: QAKHKQRKRLKSSCKRHPLYVDFSDVGWNDWIVAPPGYHAFYCHGECPFPLADHLNSTNHAIVQTLVNSVNSKIPKACCVPTELSAISMLYLDENEKVVLKNYQDMVVEGCGCR
notes: also called hBMP2

binding result [7]: binds
binding result [8]: binds
B3: recombinant human BMP4 (ligand, UniProt P12644 293-408, looked up)
chain: SPKHHSQRARKKNKNCRRHSLYVDFSDVGWNDWIVAPPGYQAFYCHGDCPFPLADHLNSTNHAIVQTLVNSVNSSIPKACCVPTELSAISMLYLDEYDKVVLKNYQEMVVEGCGCR
notes: also called hBMP4
